From the RNAGym collection of RNA variant scans (doi:10.1093/molbev/msab373)

B1: Azoarcus group I ribozyme (parent)
chain: GUGCCUUGCGCCGGGAAACCACGCAAGGGAUGGUGUCAAAUUCGGCGAAACCUAAGCGCCCGCCCGGGCGUAUGGCAACGCCGAGCCAAGCUUCGGCGCCUGCGCCGAUGAAGGUGUAGAGACUAGACGGCACCCACCUAAGGCAAACGCUAUGGUGAAGGCAUAGUCCAGGGAGUGGCGAAAGUCACACAAACCGG

Variants of: B1
Assay: reverse-splicing fitness (ratio to wild type); higher = more active; in vitro selection; Mg2+ level not given
Method in brief: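 An in vitro group I ribozyme library with randomized positions was T7-transcribed and gel-purified. In triplicate, 10 pmol RNA in EPPS pH 7.5 was reacted with 50 pmoles of a 30-nt RNA substrate for 1 h at 37 °C across several added MgCl2 levels (1–48 mM), then stopped with EDTA. Products were reverse transcribed from a substrate-complementary primer, PCR-amplified and sequenced (HiSeq 4000). Fitness is a variant's read proportion after selection over that before, normalised to wild type.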

Point of comparison: GUGCCUUGCGCCGGGAAACCACGCAAGGGAUGGUGUCAAAUUCGGCGAAACCUAAGCGCCCGCCCGGGCGUAUGGCAACGCGGAGCCAAGCUUCGGCGCCUGCGCCGAUGUAGGUGUAGUGACUAGACGGCACCCACCUAAGGCCAACGGUAUGGUGAAGGCAUAGUCGAGGGAGCGGCGAAAGUCACACAAACCGG [C82G A111U A120U A145C C150G C169G U176C], reverse-splicing fitness 0.00235. Against it:
- GUGCCUUGCGCCGGGAAACCACGCAAGGGAUGGUGUCAAAUUCGGCGAAACCUAAGCGCCCGCCCGGGCGUAUGGCAACGCGGAGCCAAGCUUCGGCGCCUGCGCCGAUGUAGGUGUAGUGACUAGACGGCACCCACCUAAGGCCAACGGUAUGGUGAAGGCAUAGUCGAGGGAGAGGCGAAAGUCACACAAACCGG [C82G A111U A120U A145C C150G C169G U176A] — higher, 0.00357
- GUGCCUUGCGCCGGGAAACCACGCAAGGGAUGGUGUCAAAUUCGGCGAAACCUAAGCGCCCGCCCGGGCGUAUGGCAACGCGGAGCCAAGCUUCGGCGCCUGCGCCGAUGUAGGUGUAGUGACUAGACGGCACCCACCUAAGGCCAACGGUAUGGUGAAGGCAUAGUCGAGGGAGGGGCGAAAGUCACACAAACCGG [C82G A111U A120U A145C C150G C169G U176G] — higher, 0.00237
- GUGCCUUGCGCCGGGAAACCACGCAAGGGAUGGUGUCAAAUUCGGCGAAACCUAAGCGCCCGCCCGGGCGUAUGGCAACGCGGAGCCAAGCUUCGGCGCCUGCGCCGAUGUAGGUGUAGUGACUAGACGGCACCCACCUAAGGCCAACGGUAUGGUGAAGGCAUAGUCCAGGGAGUGGCGAAAGUCACACAAACCGG [C82G A111U A120U A145C C150G] — higher, 0.00763
- GUGCCUUGCGCCGGGAAACCACGCAAGGGAUGGUGUCAAAUUCGGCGAAACCUAAGCGCCCGCCCGGGCGUAUGGCAACGCGGAGCCAAGCUUCGGCGCCUGCGCCGAUGUAGGUGUAGUGACUAGACGGCACCCACCUAAGGCCAACGGUAUGGUGAAGGCAUAGUCUAGGGAGUGGCGAAAGUCACACAAACCGG [C82G A111U A120U A145C C150G C169U] — higher, 0.00336
- GUGCCUUGCGCCGGGAAACCACGCAAGGGAUGGUGUCAAAUUCGGCGAAACCUAAGCGCCCGCCCGGGCGUAUGGCAACGCGGAGCCAAGCUUCGGCGCCUGCGCCGAUGUAGGUGUAGUGACUAGACGGCACCCACCUAAGGCCAACGGUAUGGUGAAGGCAUAGUCAAGGGAGUGGCGAAAGUCACACAAACCGG [C82G A111U A120U A145C C150G C169A] — higher, 0.00362
- GUGCCUUGCGCCGGGAAACCACGCAAGGGAUGGUGUCAAAUUCGGCGAAACCUAAGCGCCCGCCCGGGCGUAUGGCAACGCGGAGCCAAGCUUCGGCGCCUGCGCCGAUGUAGGUGUAGUGACUAGACGGCACCCACCUAAGGCCAACGGUAUGGUGAAGGCAUAGUCGAGGGAGUGGCGAAAGUCACACAAACCGG [C82G A111U A120U A145C C150G C169G] — higher, 0.00344
- GUGCCUUGCGCCGGGAAACCACGCAAGGGAUGGUGUCAAAUUCGGCGAAACCUAAGCGCCCGCCCGGGCGUAUGGCAACGCGGAGCCAAGCUUCGGCGCCUGCGCCGAUGUAGGUGUAGUGACUAGACGGCACCCACCUAAGGCCAACGGUAUGGUGAAGGCAUAGUCUAGGGAGGGGCGAAAGUCACACAAACCGG [C82G A111U A120U A145C C150G C169U U176G] — higher, 0.00252
- GUGCCUUGCGCCGGGAAACCACGCAAGGGAUGGUGUCAAAUUCGGCGAAACCUAAGCGCCCGCCCGGGCGUAUGGCAACGCGGAGCCAAGCUUCGGCGCCUGCGCCGAUGUAGGUGUAGUGACUAGACGGCACCCACCUAAGGCCAACGGUAUGGUGAAGGCAUAGUCUAGGGAGAGGCGAAAGUCACACAAACCGG [C82G A111U A120U A145C C150G C169U U176A] — higher, 0.00273
- GUGCCUUGCGCCGGGAAACCACGCAAGGGAUGGUGUCAAAUUCGGCGAAACCUAAGCGCCCGCCCGGGCGUAUGGCAACGCGGAGCCAAGCUUCGGCGCCUGCGCCGAUGUAGGUGUAGUGACUAGACGGCACCCACCUAAGGCCAACGGUAUGGUGAAGGCAUAGUCUAGGGAGCGGCGAAAGUCACACAAACCGG [C82G A111U A120U A145C C150G C169U U176C] — higher, 0.00279
- GUGCCUUGCGCCGGGAAACCACGCAAGGGAUGGUGUCAAAUUCGGCGAAACCUAAGCGCCCGCCCGGGCGUAUGGCAACGCGGAGCCAAGCUUCGGCGCCUGCGCCGAUGUAGGUGUAGUGACUAGACGGCACCCACCUAAGGCCAACGGUAUGGUGAAGGCAUAGUCCAGGGAGCGGCGAAAGUCACACAAACCGG [C82G A111U A120U A145C C150G U176C] — higher, 0.00425
- GUGCCUUGCGCCGGGAAACCACGCAAGGGAUGGUGUCAAAUUCGGCGAAACCUAAGCGCCCGCCCGGGCGUAUGGCAACGCGGAGCCAAGCUUCGGCGCCUGCGCCGAUGUAGGUGUAGUGACUAGACGGCACCCACCUAAGGCCAACGGUAUGGUGAAGGCAUAGUCCAGGGAGAGGCGAAAGUCACACAAACCGG [C82G A111U A120U A145C C150G U176A] — higher, 0.00296
- GUGCCUUGCGCCGGGAAACCACGCAAGGGAUGGUGUCAAAUUCGGCGAAACCUAAGCGCCCGCCCGGGCGUAUGGCAACGCGGAGCCAAGCUUCGGCGCCUGCGCCGAUGUAGGUGUAGUGACUAGACGGCACCCACCUAAGGCCAACGGUAUGGUGAAGGCAUAGUCAAGGGAGCGGCGAAAGUCACACAAACCGG [C82G A111U A120U A145C C150G C169A U176C] — higher, 0.00248
- GUGCCUUGCGCCGGGAAACCACGCAAGGGAUGGUGUCAAAUUCGGCGAAACCUAAGCGCCCGCCCGGGCGUAUGGCAACGCGGAGCCAAGCUUCGGCGCCUGCGCCGAUGUAGGUGUAGUGACUAGACGGCACCCACCUAAGGCCAACGGUAUGGUGAAGGCAUAGUCAAGGGAGAGGCGAAAGUCACACAAACCGG [C82G A111U A120U A145C C150G C169A U176A] — higher, 0.00316
- GUGCCUUGCGCCGGGAAACCACGCAAGGGAUGGUGUCAAAUUCGGCGAAACCUAAGCGCCCGCCCGGGCGUAUGGCAACGCGGAGCCAAGCUUCGGCGCCUGCGCCGAUGUAGGUGUAGUGACUAGACGGCACCCACCUAAGGCCAACGGUAUGGUGAAGGCAUAGUCAAGGGAGGGGCGAAAGUCACACAAACCGG [C82G A111U A120U A145C C150G C169A U176G] — higher, 0.00246
